Data published in patent US20220412975.

Columns and labels:
[1] = test system: TSP1-1 substrate, (HiLyteFluor-488)-DELSSMVLELRGLRT-K(QXL520)-NH2
[2] = test system: TSP1-2 substrate, (HiLyteFluor-488)-SSMVLELRGLRTIVT-K(QXL520)-NH2
[3] = test system: (HiLyteFluor-488)-DELSSMVLELRGLRT-K(QXL520)-E-NH2
[4] = test system: TSP1-3 substrate, (HiLyteFluor-488)-KVTEENKELANELRR-K(QXL520)-NH2
[5] = test system: TSP1-5 substrate, (HiLyteFluor-488)-SSMVLELRGLRT-K(QXL520)-NH2
[6] = test system: TSP1-4 substrate, (HiLyteFluor-488)-EENKELANELRRPPL-K(QXL520)-NH2
[7] = test system: COMP2 candidate peptide, (Donor) SPGFRC(Acm)EAC(Acm)PPGYS (K-Quencher)
[8] = test system: COMP1 candidate peptide, (Donor) GMQQSVRTGLPS (K-Quencher)

rPro-hCD (Rat 1-217/Human 237-537)-TEV-2Strep-6His, sequence (chain, as listed by the source): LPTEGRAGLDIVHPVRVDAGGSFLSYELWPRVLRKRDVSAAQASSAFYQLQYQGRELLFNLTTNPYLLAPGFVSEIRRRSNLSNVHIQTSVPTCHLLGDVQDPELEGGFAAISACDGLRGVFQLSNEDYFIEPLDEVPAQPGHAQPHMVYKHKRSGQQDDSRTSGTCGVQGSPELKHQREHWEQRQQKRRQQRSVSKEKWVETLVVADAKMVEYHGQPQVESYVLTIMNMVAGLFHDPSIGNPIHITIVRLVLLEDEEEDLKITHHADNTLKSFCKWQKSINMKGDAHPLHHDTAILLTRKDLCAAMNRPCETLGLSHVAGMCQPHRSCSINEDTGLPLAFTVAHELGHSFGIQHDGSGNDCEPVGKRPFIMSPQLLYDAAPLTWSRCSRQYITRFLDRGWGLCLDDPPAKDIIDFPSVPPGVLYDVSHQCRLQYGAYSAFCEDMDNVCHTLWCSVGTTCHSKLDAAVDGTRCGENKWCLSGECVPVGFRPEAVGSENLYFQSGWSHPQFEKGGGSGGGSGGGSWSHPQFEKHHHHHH
rPro-hCD-FM2 (Rat 1-217/Human 237-537 FM2 (Q216K))-TEV-2Strep-6His, sequence (chain, as listed by the source Q216K): as the sequence (chain, as listed by the source) above, with Q192K counted along it

Row | Substance | FRET peptide cleavage (Relative Fluorescence Units over time) [1] | kcat [1] | FRET peptide cleavage (Relative Fluorescence Units over time) [2] | kcat [2] | FRET peptide cleavage (increase of fluorescence intensity) [3] | FRET peptide cleavage (Relative Fluorescence Units over time) [4] | kcat [4] | FRET peptide cleavage (Relative Fluorescence Units over time) [5] | kcat [5] | FRET peptide cleavage (Relative Fluorescence Units over time) [6] | kcat [6] | FRET peptide cleavage (Relative Fluorescence Units over time) [7] | kcat [7] | FRET peptide cleavage (Relative Fluorescence Units over time) [8] | kcat [8]
1 | rPro-hCD (Rat 1-217/Human 237-537)-TEV-2Strep-6His | demonstrated the greatest specificity for the TSP1 S1 | 0.00035 s⁻¹ | also cleaved the overlapping TSP1 S2 substrate | 5.33e-05 s⁻¹ | It was surprisingly found that the same substrate could be used for the paralogs ADAMTS-7 and ADAMTS-12 | No significant activity was detected at the defined ADAMTS1 cleavage site E311⬇L312 from TSP1 S3 | 2e-05 s⁻¹ | Activity was observed for the S5 substrate with ADAMTS-7 human catalytic domain constructs compared to buffer alone, however the removal of the amino DEL sequence greatly reduced the signal for activity compared to the 51 substrate | 3.33e-05 s⁻¹ | No significant activity was detected at the defined ADAMTS1 cleavage site E311⬇L312 from TSP1 S3 ... or TSP1 S4 | 3.33e-05 s⁻¹ | No activity was observed with COMP candidate peptides COMP1 ... or COMP2 | 6.33e-06 s⁻¹ | No activity was observed with COMP candidate peptides COMP1 | 1.22e-05 s⁻¹
2 | rPro-hCD-FM2 (Rat 1-217/Human 237-537 FM2 (Q216K))-TEV-2Strep-6His | demonstrated the greatest specificity for the TSP1 S1 | 0.0004 s⁻¹ | also cleaved the overlapping TSP1 S2 substrate | 4.83e-05 s⁻¹ | It was surprisingly found that the same substrate could be used for the paralogs ADAMTS-7 and ADAMTS-12 | No significant activity was detected at the defined ADAMTS1 cleavage site E311⬇L312 from TSP1 S3 | 2e-05 s⁻¹ | Activity was observed for the S5 substrate with ADAMTS-7 human catalytic domain constructs compared to buffer alone, however the removal of the amino DEL sequence greatly reduced the signal for activity compared to the 51 substrate | 3.5e-05 s⁻¹ | No significant activity was detected at the defined ADAMTS1 cleavage site E311⬇L312 from TSP1 S3 ... or TSP1 S4 | 3.5e-05 s⁻¹ | No activity was observed with COMP candidate peptides COMP1 ... or COMP2 | 6.5e-06 s⁻¹ | No activity was observed with COMP candidate peptides COMP1 | 1.27e-05 s⁻¹
